Variants at the floor of the assay were thinned out.
Assays:
biotinyl-Phe-oxazolone = assay: self-aminoacylation, catalytic enhancement (BFO) (fold over background); higher = more active; k-Seq, kA / k0A0; sequences stand for … in GGGAAUGGAUCCACAUCUACGAAUUC…UUCACUGCAGACUUGACGAAGCUG
Summary of the method: (§1)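 Catalytic enhancement equals the median kA over the uncatalyzed rate, the latter read from the low-activity peak of a bimodal Gaussian fit. Values of kA came from fitting each sequence's fraction reacted to a pseudo-first-order model, with 1000 bootstraps. Reacted RNA was captured with streptavidin and quantified by triplicate qPCR and Illumina sequencing after 90 minutes at room temperature with 2–1250 μM biotinyl-aminoacyl-oxazolone and 0.43 μM mutagenized RNA pools bearing a 21-nt variable region.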

biotinyl-Ile-oxazolone = assay: self-aminoacylation, catalytic enhancement (BIO) (fold over background); higher = more active; k-Seq, kA / k0A0; sequences stand for … in GGGAAUGGAUCCACAUCUACGAAUUC…UUCACUGCAGACUUGACGAAGCUG
Summary of the method: as §1

biotinyl-Met-oxazolone = assay: self-aminoacylation, catalytic enhancement (BMO) (fold over background); higher = more active; k-Seq, kA / k0A0; sequences stand for … in GGGAAUGGAUCCACAUCUACGAAUUC…UUCACUGCAGACUUGACGAAGCUG
Summary of the method: as §1

biotinyl-Val-oxazolone = assay: self-aminoacylation, catalytic enhancement (BVO) (fold over background); higher = more active; k-Seq, kA / k0A0; sequences stand for … in GGGAAUGGAUCCACAUCUACGAAUUC…UUCACUGCAGACUUGACGAAGCUG
Summary of the method: as §1

biotinyl-Leu-oxazolone = assay: self-aminoacylation, catalytic enhancement (BLO) (fold over background); higher = more active; k-Seq, kA / k0A0; sequences stand for … in GGGAAUGGAUCCACAUCUACGAAUUC…UUCACUGCAGACUUGACGAAGCUG
Summary of the method: as §1

biotinyl-Trp-oxazolone = assay: self-aminoacylation, catalytic enhancement (BWO) (fold over background); higher = more active; k-Seq, kA / k0A0; sequences stand for … in GGGAAUGGAUCCACAUCUACGAAUUC…UUCACUGCAGACUUGACGAAGCUG
Summary of the method: as §1

| Sequence | self-aminoacylation (biotinyl-Phe-oxazolone) | self-aminoacylation (biotinyl-Ile-oxazolone) | self-aminoacylation (biotinyl-Met-oxazolone) | self-aminoacylation (biotinyl-Val-oxazolone) | self-aminoacylation (biotinyl-Leu-oxazolone) | self-aminoacylation (biotinyl-Trp-oxazolone) |
| --- | --- | --- | --- | --- | --- | --- |
| AUUGACCGAGGUCAUCGGGUG [Fam2.2 aminoacylation ribozyme variant] | 54.8 | 4.88 | 8.11 | 4.8 | 11 | 8.13 |
| AUUGACCUAGAUCAUCGGGUG [Fam2.2 aminoacylation ribozyme variant] | 18 | 2.54 | 3.5 | 2.54 | 3.59 | 3.51 |
| AUUGACCUAGGUCAGCGGGUG [Fam2.2 aminoacylation ribozyme variant] | 12.5 | 2.61 | 2.59 | 2.86 | 3.01 | 3.29 |
| AUUGACCUAGGUCAUCUGGUG [Fam2.2 aminoacylation ribozyme variant] | 8.46 | 1.83 | 1.9 | 1.7 | 2.42 | 2.27 |
| AUUGACCUAGGUGAUCGGGUG [Fam2.2 aminoacylation ribozyme variant] | 25.9 | 4.21 | 4.22 | 3.78 | 5.78 | 6.18 |
| AUUGCCCUAGGUCAUCGGGUG [Fam2.2 aminoacylation ribozyme variant] | 62.7 | 5.44 | 8.34 | 5.7 | 11.8 | 7.92 |
| AUUGCCCUGGCCAUCGAGUGA [Fam2.1 aminoacylation ribozyme variant] | 25.2 | 2.48 | 3.8 | 2.74 | 4.96 | 4.87 |
| AUUGCCCUGGUCAGCGAGUGA [Fam2.1 aminoacylation ribozyme variant] | 36.7 | 3.29 | 5.91 | 3.76 | 5.65 | 6.28 |
| AUUGCCCUGGUCAUCGAGUGG [Fam2.1 aminoacylation ribozyme variant] | 197 | 9.44 | 30.9 | 10.9 | 29.4 | 29.8 |
| AUUGCCCUGGUCAUCGAGUGU [Fam2.1 aminoacylation ribozyme variant] | 448 | 18.4 | 64.6 | 23.4 | 62.2 | 65.7 |
| AUUGCCCUGGUCCUCGAGUGA [Fam2.1 aminoacylation ribozyme variant] | 23.4 | 1.94 | 3.5 | 2.05 | 3.42 | 3.66 |
| AUUGUCCUGGUCAUCGAGUGA [Fam2.1 aminoacylation ribozyme variant] | 10 | 4.78 | 9.63 | 4.76 | 8.83 | 11.3 |
| AUUUACCGAGGUCAUCGGGUG [Fam2.2 aminoacylation ribozyme variant] | 64.7 | 4.97 | 8.5 | 4.5 | 11.1 | 6.88 |
| AUUUACCUAGGACAUCGGGUG [Fam2.2 aminoacylation ribozyme variant] | 10.9 | 2.26 | 2.48 | 2.23 | 3.45 | 2.29 |
| AUUUACCUAGGUCAACGGGUG [Fam2.2 aminoacylation ribozyme variant] | 29.2 | 2.56 | 4.05 | 2.26 | 4.95 | 3.56 |
| AUUUACCUAGGUCAUCGAGUG [Fam2.2 aminoacylation ribozyme variant] | 18.5 | 6.62 | 9.76 | 5.4 | 12.7 | 5.73 |
| AUUUACCUAGGUCAUCGGAUG [Fam2.2 aminoacylation ribozyme variant] | 0.723 | 0.906 | 0.954 | 0.974 | 0.846 | 0.671 |
| AUUUACCUAGGUCAUCGUGUG [Fam2.2 aminoacylation ribozyme variant] | 1.75 | 0.874 | 0.995 | 0.953 | 1.18 | 0.691 |
| AUUUACCUAGGUCCUCGGGUG [Fam2.2 aminoacylation ribozyme variant] | 28.6 | 3.33 | 4.15 | 3.3 | 6.13 | 4.31 |
| AUUUACCUAGGUUAUCGGGUG [Fam2.2 aminoacylation ribozyme variant] | 23.2 | 2.29 | 3.44 | 2.4 | 3.48 | 3.72 |
| AUUUACCUCGGUCAUCGGGUG [Fam2.2 aminoacylation ribozyme variant] | 54.6 | 4.06 | 6.78 | 4.9 | 8.51 | 7.01 |
| AUUUACCUGGGUCAUCGGGUG [Fam2.2 aminoacylation ribozyme variant] | 57.3 | 8.99 | 18.5 | 10.3 | 22.1 | 17.2 |
| AUUUCCCUAGGUCAUCGGGUG [Fam2.2 aminoacylation ribozyme variant] | 70.4 | 6.29 | 10.3 | 6.97 | 13.5 | 9.73 |
| AUUUCCCUGGACAUCGAGUGA [Fam2.1 aminoacylation ribozyme variant] | 41.7 | 2.83 | 6.51 | 3.54 | 5.46 | 8.11 |
| AUUUCCCUGGUCAUCGAGUGC [Fam2.1 aminoacylation ribozyme variant] | 2.11 | 1.1 | 1.86 | 1.08 | 1.59 | 1.21 |
| AUUUCCCUGGUCAUCUAGUGA [Fam2.1 aminoacylation ribozyme variant] | 76.6 | 4.45 | 8.93 | 4.67 | 9.47 | 11.7 |

| Sequence | self-aminoacylation (biotinyl-Phe-oxazolone) | self-aminoacylation (biotinyl-Ile-oxazolone) | self-aminoacylation (biotinyl-Met-oxazolone) | self-aminoacylation (biotinyl-Val-oxazolone) | self-aminoacylation (biotinyl-Leu-oxazolone) | self-aminoacylation (biotinyl-Trp-oxazolone) |
| --- | --- | --- | --- | --- | --- | --- |
| AUUUCCGUGGUCAUCGAGUGA [Fam2.1 aminoacylation ribozyme variant] | 52.8 | 3.67 | 6.67 | 4.26 | 6.35 | 8.19 |
| AUUUCCUUGGUCAUCGAGUGA [Fam2.1 aminoacylation ribozyme variant] | 43.8 | 4.35 | 8.2 | 4.63 | 8.92 | 11.1 |
| AUUUGCCUGGUCAUCGAGUGA [Fam2.1 aminoacylation ribozyme variant] | 13.1 | 4.47 | 8 | 4.54 | 8.2 | 9.16 |
| AUUUUUGCUAAUAGUCGCAAG [Fam3.1 aminoacylation ribozyme variant] | 1.71 | 1.37 | 1.07 | 1.02 | 0.994 | 1.02 |
| CAACAAUUCAAGCAAUCGGUC [Fam1B.1 aminoacylation ribozyme variant] | 1.71 | 1.16 | 1.1 | 0.937 | 1.01 | 1.31 |
| CAACACUCCAAGCAAUCGGUC [Fam1B.1 aminoacylation ribozyme variant] | 1.67 | 1.13 | 1.02 | 1.06 | 0.956 | 1.77 |
| CAACACUGCAAGCAAUCGGUC [Fam1B.1 aminoacylation ribozyme variant] | 0.892 | 1.12 | 1.3 | 1.24 | 1.46 | 0.788 |
| CAACACUUCAAGCAACCGGUC [Fam1B.1 aminoacylation ribozyme variant] | 1.59 | 1 | 1.12 | 0.998 | 1.2 | 0.754 |
| CAACACUUCAAGCUAUCGGUC [Fam1B.1 aminoacylation ribozyme variant] | 0.964 | 1.2 | 1.03 | 1.05 | 0.89 | 1.02 |
| CAACACUUCAGGCAAUCGGUC [Fam1B.1 aminoacylation ribozyme variant] | 1.27 | 1.43 | 1.12 | 1.19 | 1.34 | 1.3 |
| CAACUUAAAACAAUCGGUCUG [Fam1A.1 aminoacylation ribozyme variant] | 1.71 | 0.984 | 1.09 | 1.14 | 1.11 | 0.948 |
| CAACUUCAAACAAUCGGUUUG [Fam1A.1 aminoacylation ribozyme variant] | 87.8 | 1.51 | 1.71 | 1.62 | 2.6 | 44 |
| CAACUUCAAACAAUCGUUCUG [Fam1A.1 aminoacylation ribozyme variant] | 1.83 | 0.675 | 0.624 | 0.734 | 0.728 | 1.03 |
| CAACUUCAAACAAUGGGUCUG [Fam1A.1 aminoacylation ribozyme variant] | 2.23 | 1.21 | 0.966 | 0.929 | 1.06 | 0.937 |
| CAACUUCAAACAGUCGGUCUG [Fam1A.1 aminoacylation ribozyme variant] | 5.76 | 1.21 | 1.2 | 1.19 | 1.08 | 0.928 |
| CAACUUCAAACCAUCGGUCUG [Fam1A.1 aminoacylation ribozyme variant] | 1.41 | 1.06 | 0.913 | 1.1 | 1.07 | 1.14 |
| CAACUUCAACCAAUCGGUCUG [Fam1A.1 aminoacylation ribozyme variant] | 66.9 | 1.37 | 1.67 | 1.61 | 2.41 | 33.2 |
| CAACUUCAUACAAUCGGUCUG [Fam1A.1 aminoacylation ribozyme variant] | 1.65 | 1.06 | 0.861 | 0.962 | 1.04 | 0.771 |
| CAACUUCCAACAAUCGGUCUG [Fam1A.1 aminoacylation ribozyme variant] | 1.69 | 1.13 | 1.15 | 0.929 | 0.985 | 1.14 |
| CAGCACUUCAAGCAAUCGGUC [Fam1B.1 aminoacylation ribozyme variant] | 34.4 | 1.67 | 1.79 | 1.55 | 2.33 | 22.1 |
| CAGUGUGCUAAUAGUCGCAAG [Fam3.1 aminoacylation ribozyme variant] | 1.76 | 1.51 | 1.58 | 1.46 | 1.46 | 1.59 |
| CAGUUUGCAAAUAGUCGCAAG [Fam3.1 aminoacylation ribozyme variant] | 2.37 | 1.72 | 1.65 | 1.52 | 2.03 | 2.02 |
| CAGUUUGCUAAUAAUCGCAAG [Fam3.1 aminoacylation ribozyme variant] | 1.1 | 0.97 | 1 | 1.03 | 0.99 | 0.939 |
| CAGUUUGCUAAUAGCCGCAAG [Fam3.1 aminoacylation ribozyme variant] | 1.44 | 1.86 | 1.26 | 1.46 | 1.69 | 1.07 |
| CAGUUUGCUAAUAGUAGCAAG [Fam3.1 aminoacylation ribozyme variant] | 2.46 | 1.26 | 1.58 | 1.04 | 1.5 | 1.65 |
